Measured values: paper PMC7605860

B1: corin: N567Q (protein)
parent chain: MKQSPALAPEERCRRAGSPKPVLRADDNNMGNGCSQKLATANLLRFLLLVLIPCICALVLLLVILLSYVGTLQKVYFKSNGSEPLVTDGEIQGSDVILTNTIYNQSTVVSTAHPDQHVPAWTTDASLPGDQSHRNTSACMNITHSQCQMLPYHATLTPLLSVVRNMEMEKFLKFFTYLHRLSCYQHIMLFGCTLAFPECIIDGDDSHGLLPCRSFCEAAKEGCESVLGMVNYSWPDFLRCSQFRNQTESSNVSRICFSPQQENGKQLLCGRGENFLCASGICIPGKLQCNGYNDCDDWSDEAHCNCSENLFHCHTGKCLNYSLVCDGYDDCGDLSDEQNCDCNPTTEHRCGDGRCIAMEWVCDGDHDCVDKSDEVNCSCHSQGLVECRNGQCIPSTFQCDGDEDCKDGSDEENCSVIQTSCQEGDQRCLYNPCLDSCGGSSLCDPNNSLNNCSQCEPITLELCMNLPYNSTSYPNYFGHRTQKEASISWESSLFPALVQTNCYKYLMFFSCTILVPKCDVNTGEHIPPCRALCEHSKERCESVLGIVGLQWPEDTDCSQFPEENSDNQTCLMPDEYVEECSPSHFKCRSGQCVLASRRCDGQADCDDDSDEENCGCKERDLWECPSNKQCLKHTVICDGFPDCPDYMDEKNCSFCQDDELECANHACVSRDLWCDGEADCSDSSDEWDCVTLSINVNSSSFLMVHRAATEHHVCADGWQEILSQLACKQMGLGEPSVTKLIQEQEKEPRWLTLHSNWESLNGTTLHELLVNGQSCESRSKISLLCTKQDCGRRPAARMNKRILGGRTSRPGRWPWQCSLQSEPSGHICGCVLIAKKWVLTVAHCFEGRENAAVWKVVLGINNLDHPSVFMQTRFVKTIILHPRYSRAVVDYDISIVELSEDISETGYVRPVCLPNPEQWLEPDTYCYITGWGHMGNKMPFKLQEGEVRIISLEHCQSYFDMKTITTRMICAGYESGTVDSCMGDSGGPLVCEKPGGRWTLFGLTSWGSVCFSKVLGPGVYSNVSYFVEWIKRQIYIQTFLLN
B2: corin: N697Q (protein)
parent chain: B1 parent chain
B3: corin: N761Q (protein)
parent chain: B1 parent chain
B4: corin: N1022Q (protein)
parent chain: B1 parent chain
B5: corin: N651Q (protein)
parent chain: B1 parent chain

assay: immunostaining, confocal microscopy, FBL/FTotal ratio in polarized MDCK cells; settings: glycan lost; control: corin WT

localisation_or_trafficking, no change:
B1, B2, B3, B4, B5
